Results reported in PMC12412103, “An Amyloidogenic Fragment of the Spike Protein from SARS-CoV‑2 Virus Stimulates the Aggregation and Toxicity of Parkinson’s Disease Protein Alpha-Synuclein” (ACS Chemical Neuroscience, 2025).
“And” between values parts separate entries of the source, which are not always exact repeats. Identical values can stand only once.

Assays:
dynamic light scattering = target: the molecule itself; experiment: dynamic light scattering
[1] = target: α-synuclein (αSyn), wild type (human, UniProt P37840 1-140); experiment: ITC; conditions: both partners purified

B1: Spike 194–203 (S194), fibrillogenic fragment of the Spike protein of SARS-CoV-2 (peptide)
peptide: FKNIDGYFKI
notes: also called mS194 (monomer); fS194 (fibrils)
For B1, the binding result (dynamic light scattering) was “binds” and the dH [1] was -200 kcal/mol and -150 kcal/mol.
